Target: Sp1 (UniProt P08047 2-785)
Test: EMSA; recombinant Sp1; supershift with Sp1 antibody; LightShift Chemiluminescent EMSA kit (Pierce), 25 °C, 20 min, 6% PAGE; 100-fold unlabeled competitor; buffer, salt and pH not stated
Conditions: protein: commercial; label: 3' biotin; blunt

Sp1, sequence (P08047 2-785): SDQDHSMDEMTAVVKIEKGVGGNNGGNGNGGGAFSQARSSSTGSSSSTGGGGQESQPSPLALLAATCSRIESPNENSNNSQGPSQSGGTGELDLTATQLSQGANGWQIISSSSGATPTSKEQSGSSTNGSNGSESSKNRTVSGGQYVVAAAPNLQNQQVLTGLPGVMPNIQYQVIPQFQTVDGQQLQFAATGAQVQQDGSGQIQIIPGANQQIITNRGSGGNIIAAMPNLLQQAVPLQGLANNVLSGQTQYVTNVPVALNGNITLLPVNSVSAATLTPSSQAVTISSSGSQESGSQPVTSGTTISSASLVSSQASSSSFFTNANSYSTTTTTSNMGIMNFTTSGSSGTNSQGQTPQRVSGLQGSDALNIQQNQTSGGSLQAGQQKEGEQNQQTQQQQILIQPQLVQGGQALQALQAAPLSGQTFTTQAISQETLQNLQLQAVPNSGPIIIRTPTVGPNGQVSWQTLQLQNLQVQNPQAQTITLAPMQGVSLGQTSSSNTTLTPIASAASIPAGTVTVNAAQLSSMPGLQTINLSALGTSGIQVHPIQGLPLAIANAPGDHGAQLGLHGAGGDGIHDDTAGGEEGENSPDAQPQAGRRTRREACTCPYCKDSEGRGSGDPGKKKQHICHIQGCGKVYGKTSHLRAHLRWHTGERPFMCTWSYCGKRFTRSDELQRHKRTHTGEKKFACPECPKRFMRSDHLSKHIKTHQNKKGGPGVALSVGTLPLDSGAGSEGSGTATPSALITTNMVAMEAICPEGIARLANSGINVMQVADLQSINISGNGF

B1: MMP13 rs2252070G probe (dsDNA)
DNA 1: CCTTCAAGTGACTGGGAAGTGGAAACCT
DNA 2: AGGTTTCCACTTCCCAGTCACTTGAAGG
B1: binds.
